In publication PMC11785871, “D-Serine disrupts Cbln1 and GluD1 interaction and affects Cbln1-dependent synaptic effects and nocifensive responses in the central amygdala” (Cellular and Molecular Life Sciences: CMLS, 2025):

What was measured:
[1] = biological target: GluD1 (UniProt Q9ULK0); conditions: cited from earlier work
[2] = biological target: Neurexin (UniProt P58400); conditions: cited from earlier work
[3] = biological target: T1, GluD1 (glutamate delta-1 receptor) (Rattus norvegicus, UniProt Q62640); test: cell-binding assay: inhibition of rCbln1 binding to GluD1-expressing COS-7 cells; effect lost in R526K mutant; immunoblot confirmation in HEK293T; assay type: cell-based
T1 construct: gene Grid1; rat pCAGGS GluD1 plasmid expressed in COS-7 cells; with Cbln1 (recombinant, HA-tagged)
T1 sequence (Q62640 21-1009): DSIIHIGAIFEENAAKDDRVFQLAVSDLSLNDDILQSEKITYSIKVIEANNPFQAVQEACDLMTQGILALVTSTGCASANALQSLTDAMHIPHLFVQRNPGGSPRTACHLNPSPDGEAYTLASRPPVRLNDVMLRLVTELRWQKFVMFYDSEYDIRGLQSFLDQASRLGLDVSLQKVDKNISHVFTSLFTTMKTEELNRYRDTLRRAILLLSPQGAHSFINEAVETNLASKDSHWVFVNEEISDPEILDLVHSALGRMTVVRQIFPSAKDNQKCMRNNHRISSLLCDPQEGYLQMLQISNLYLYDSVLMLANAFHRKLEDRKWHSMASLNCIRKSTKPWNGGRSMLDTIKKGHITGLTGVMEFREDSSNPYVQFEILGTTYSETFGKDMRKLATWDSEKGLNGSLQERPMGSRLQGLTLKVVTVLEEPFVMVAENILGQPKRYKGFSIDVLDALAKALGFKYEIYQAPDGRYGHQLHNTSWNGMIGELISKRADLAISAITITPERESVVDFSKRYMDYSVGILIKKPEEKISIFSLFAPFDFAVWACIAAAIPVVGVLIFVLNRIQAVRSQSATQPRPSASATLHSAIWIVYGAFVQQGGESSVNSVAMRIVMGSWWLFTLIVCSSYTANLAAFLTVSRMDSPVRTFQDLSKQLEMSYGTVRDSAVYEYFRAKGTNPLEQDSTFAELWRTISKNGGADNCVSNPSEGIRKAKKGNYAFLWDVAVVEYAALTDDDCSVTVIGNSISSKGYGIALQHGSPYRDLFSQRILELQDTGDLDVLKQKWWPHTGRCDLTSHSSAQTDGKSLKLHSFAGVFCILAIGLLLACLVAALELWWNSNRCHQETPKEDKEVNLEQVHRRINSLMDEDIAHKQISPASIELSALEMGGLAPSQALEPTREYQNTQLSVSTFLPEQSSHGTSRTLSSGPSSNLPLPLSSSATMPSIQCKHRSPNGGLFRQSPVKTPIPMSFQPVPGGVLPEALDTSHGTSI
T1 sequence (P63182 22-193 partner): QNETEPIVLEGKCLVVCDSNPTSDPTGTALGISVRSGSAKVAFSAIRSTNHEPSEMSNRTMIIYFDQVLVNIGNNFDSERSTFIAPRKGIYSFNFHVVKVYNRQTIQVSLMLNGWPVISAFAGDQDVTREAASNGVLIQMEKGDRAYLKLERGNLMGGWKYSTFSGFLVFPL

Cbln1, sequence (P23435 22-193): as the sequence (P63182 22-193 partner) above
Neurexin, sequence (P58400 51-396): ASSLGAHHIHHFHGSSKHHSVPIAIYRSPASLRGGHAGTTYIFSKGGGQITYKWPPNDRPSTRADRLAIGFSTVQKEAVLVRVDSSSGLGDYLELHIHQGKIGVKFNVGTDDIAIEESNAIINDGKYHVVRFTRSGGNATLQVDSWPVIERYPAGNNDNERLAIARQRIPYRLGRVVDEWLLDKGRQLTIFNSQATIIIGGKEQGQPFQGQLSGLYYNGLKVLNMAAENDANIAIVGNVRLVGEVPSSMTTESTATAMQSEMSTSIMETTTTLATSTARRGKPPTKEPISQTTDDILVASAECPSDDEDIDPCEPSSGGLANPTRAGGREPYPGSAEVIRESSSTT
GluD1, sequence (Q9ULK0 21-436): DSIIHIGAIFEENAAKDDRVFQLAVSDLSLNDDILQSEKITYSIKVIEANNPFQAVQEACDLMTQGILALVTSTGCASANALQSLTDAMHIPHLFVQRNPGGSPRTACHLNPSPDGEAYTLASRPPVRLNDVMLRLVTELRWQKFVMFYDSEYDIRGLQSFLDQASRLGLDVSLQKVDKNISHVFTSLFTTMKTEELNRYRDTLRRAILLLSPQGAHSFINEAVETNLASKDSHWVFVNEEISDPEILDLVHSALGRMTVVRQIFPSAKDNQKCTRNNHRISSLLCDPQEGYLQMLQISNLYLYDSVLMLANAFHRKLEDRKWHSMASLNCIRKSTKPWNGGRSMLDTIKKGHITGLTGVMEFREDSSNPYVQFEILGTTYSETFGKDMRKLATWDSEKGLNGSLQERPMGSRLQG

Row | IC50 [3] [nM] | Compound | Kd [1] [nM] | Kd [2] [nM]
1 |  | Cbln1 (from UniProt P23435) | 100 | 47
2 | 310000 ± 160000 | N[C@H](CO)C(=O)O [D-serine] |  | 
